# In patent US20250074980A1 (BRIGHAM AND WOMEN S HOSPITAL, published 2025):
# T1: CEACAM6 on transfected HeLa cells (human, UniProt P40199 35-320)
# T1 construct: whole, on cells; also called HeLa-CEACAM6; HeLa C6
# T1 sequence (looked up): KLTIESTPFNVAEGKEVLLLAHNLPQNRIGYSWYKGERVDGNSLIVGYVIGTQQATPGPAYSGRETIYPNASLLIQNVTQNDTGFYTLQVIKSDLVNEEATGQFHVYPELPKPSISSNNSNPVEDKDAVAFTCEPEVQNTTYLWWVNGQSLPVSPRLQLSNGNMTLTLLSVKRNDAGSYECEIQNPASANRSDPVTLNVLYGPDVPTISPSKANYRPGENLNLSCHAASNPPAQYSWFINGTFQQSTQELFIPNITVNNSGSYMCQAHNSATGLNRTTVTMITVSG
# T2: CEACAM5 on transfected HeLa cells (human, UniProt P06731 35-685)
# T2 construct: whole, on cells; also called HeLa-CEACAM5; HeLa C5
# T2 sequence (looked up): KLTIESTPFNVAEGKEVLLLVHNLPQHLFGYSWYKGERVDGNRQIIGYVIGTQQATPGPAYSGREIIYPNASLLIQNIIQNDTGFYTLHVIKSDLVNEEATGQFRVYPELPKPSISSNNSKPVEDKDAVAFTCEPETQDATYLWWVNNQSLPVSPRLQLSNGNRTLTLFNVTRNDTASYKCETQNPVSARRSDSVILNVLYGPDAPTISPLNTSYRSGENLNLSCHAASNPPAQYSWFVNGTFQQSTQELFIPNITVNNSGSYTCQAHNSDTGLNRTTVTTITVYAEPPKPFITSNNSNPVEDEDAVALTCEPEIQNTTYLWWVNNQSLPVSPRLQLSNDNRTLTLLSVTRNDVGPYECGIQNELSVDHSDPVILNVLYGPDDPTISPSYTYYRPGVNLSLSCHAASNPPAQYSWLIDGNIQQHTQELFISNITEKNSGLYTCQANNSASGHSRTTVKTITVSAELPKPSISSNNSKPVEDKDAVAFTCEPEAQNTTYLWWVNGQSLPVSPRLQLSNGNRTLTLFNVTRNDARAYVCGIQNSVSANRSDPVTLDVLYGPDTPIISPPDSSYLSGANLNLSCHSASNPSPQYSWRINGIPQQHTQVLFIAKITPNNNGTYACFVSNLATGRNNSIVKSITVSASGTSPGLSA
# T3: CEACAM3 on transfected HeLa cells (human, UniProt P40198 35-252)
# T3 construct: whole, on cells; also called HeLa-CEACAM3; HeLa C3
# T3 sequence (looked up): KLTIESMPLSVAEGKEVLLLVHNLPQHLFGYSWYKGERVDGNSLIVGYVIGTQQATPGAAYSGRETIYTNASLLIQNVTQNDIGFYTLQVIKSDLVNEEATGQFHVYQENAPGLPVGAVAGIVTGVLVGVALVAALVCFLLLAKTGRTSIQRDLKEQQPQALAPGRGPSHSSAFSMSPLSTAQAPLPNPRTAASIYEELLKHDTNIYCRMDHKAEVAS
# Legend:
# [1] = biological target: T1, CEACAM6 on transfected HeLa cells; assay: flow cytometry, transfected HeLa
# [2] = biological target: T2, CEACAM5 on transfected HeLa cells; assay: flow cytometry, transfected HeLa
# [3] = biological target: T1, CEACAM6 on transfected HeLa cells; assay: flow cytometry, HeLa-CEACAM6 transfectants, % staining, stacked bars
# Excerpt: (§1) FIG. 11 illustrates the binding selectivity of different affinity-matured CEACAM1 antibodies. […] HELA cells were transfected with vector alone (HeLa-Neo) or vectors expressing CEACAM1, CEACAM3, CEACAM5, or CEACAM6, respectively, and stained with the indicated antibodies. […] MOPC=mouse IgG1 control antibody. Mouse antibodies as positive control for transfected CEACAM isoforms: Col-1=CEACAM3 and CEACAM5 antibody. 9A6=CEACAM6 antibody. T84.1=CEACAM cross-reactive antibody and T84.66=CEACAM5 antibody. Only 2nd FITC=No primary antibody, only secondary FITC conjugated antibody. […] Data for affinity-matured antibodies 9B3_8H3/Vκ8 S29A, 8H3_9B3/CP08_E05, and 8H3_9C2/CPO08_F05, as well as data for CEACAM8 antibody 80H3 were omitted from the FIG. due to an unusually high background signal.
# [4] = biological target: T2, CEACAM5 on transfected HeLa cells; assay: flow cytometry, HeLa-CEACAM5 transfectants, % staining, stacked bars
# Excerpt: as §1
# [5] = biological target: T3, CEACAM3 on transfected HeLa cells; assay: flow cytometry, HeLa-CEACAM3 transfectants, % staining, stacked bars
# Excerpt: as §1
# [6] = biological target: T2, CEACAM5 on transfected HeLa cells; assay: flow cytometry titration, HeLa-CEACAM5 transfectants, anti-human IgG4 FITC
# Experimental: FIGS. 31A and 31B show flow cytometry analyses of stable HeLa CEACAM1 (HeLa C1) transfectant, stable HeLa CEACAM3 transfectant (HeLa C3), stable HeLa CEACAM5 transfectant (HeLa C5), stable HeLa CEACAM6 transfectant (HeLa C6), and stable HeLa CEACAM8 transfectant (HeLa C8). FIG. 31A: 5×10\hat{ }4 indicated HeLa transfectants were washed with staining buffer and CP08H03/Vκ8 S29A (labeled “CP08”, left) or CEACAM1 antibody CM-24 was incubated at room temperature for 30 min, washed twice with staining buffer, and stained for anti-human IgG4 Fluorescein isothiocyanate (FITC) conjugated secondary antibody at room temperature for 20 min. Fluorescence intensities were determined by flow cytometry. Live cells were determined by 4′,6-diamidino-2-phenylindole (DAPI) staining as shown on the y-axis. Staining with the respective CEACAM1 antibody is shown on the x-axis. […]
# The cervical adenocarcinoma cell line HeLa (ATCC No CCL-2) as well as transfected cell lines HeLaCEACAM1, HeLaCEACAM3, HeLaCEACAM5, HeLaCEACAM6 and HeLaCEACAM8 used for flow cytometry experiments were cultured at 37° C., 5.0% CO₂ in Dulbecco's modified Eagle's medium supplemented with 10% fetal bovine serum, penicillin (100 U/ml) and dihydrostreptomycin (100 μg/ml). […] Data were acquired with a Cytoflex flow cytometer (Invitrogen) and analyzed with FlowJo software (TreeStar, V7.6.5 for Windows).
Binder,relative amount of cells bound [1],relative amount of cells bound [2],binding result [3],binding result [4],binding result [5],binding result [6]
"VH1/Vκ8 S29A (antibody, IgG4, V domains shown, IgG4 (S241P), kappa; also called Parent; Parent (VH1/Vκ8 S29A)) VH: EVQLLESGGGLVQPGGSLRLSCAASGFIFSSHGMSWVRQAPGKGLEWVATISSGGTYTYYPDSVKGRFTISRDNSKNTLYLQMNSLKAEDTAMYYCARHDFDYDAAWFAYWGQGTLVTVSS VL: EIVLTQSPATLSLSPGERATLSCRANSAVSYMYWYQQKPGQAPRPWIYLTSNRATGVPARFSGSGSGTDYTLTISSLEPEDFAVYYCQQWSSNPPTFGQGTKLEIK",,,no binding,no binding,no binding,
"CP08H03/CP08F05 (antibody, V domains shown, IgG4 (S241P), kappa) VH: EVQLLESGGGLVQPGGSLRLSCAASGFIFSSHGMSWVRQAPGKGLEWVATISSGGTYTYYPDSVKGRFTISRDNSKNTLYLQMNSLKAEDTAMYYCARHDFDYFPYWFAHWGQGTLVTVSS VL: EIVLTQSPATLSLSPGERATLSCRANSAVSYMYWYQQKPGQAPRPWIYLTSNRATGVPARFSGSGSGTDYTLTISSLEPEDFAVYYCQQWTSNPPTFGQGTKLEIK",,,no binding,no binding,no binding,

# More lines, now with the values ahead:
relative amount of cells bound [1],relative amount of cells bound [2],binding result [3],binding result [4],binding result [5],binding result [6],Binder
0.3,8.81,,,,,"chimeric antibody VH0/Vκ0 (antibody, IgG4, V domains shown, IgG4 (S241P), kappa; also called VH0/Vκ0 (control); Chimeric VH0/Vκ0) VH: EVQLVESGGDLVKPGGSLKLACAASGFIFSSHGMSWVRQTPDKRLEWVATISSGGTYTYYPDSVKGRFTISRDNDKNTLYLQMNSLKSEDTAMYYCARHDFDYDAAWFAYWGQGTLVTVSS VL: QIVLTQSPALMSASPGVKVTMTCSANSSVSYMYWYRQKPRSSPKPWIYLTSNLASGVPARFSGSGSGTSYSLTISSMEAEDAATYYCQQWSSNPPTFGSGTKLEIK"
,,,,,no binding (tested: 100 ug/ml),"CP08H03/Vκ8 S29A (antibody, IgG4, V domains shown, IgG4 (S241P), kappa; also called CP08_H03/Parent VL; CP08_H03/Parental) VH: EVQLLESGGGLVQPGGSLRLSCAASGFIFSSHGMSWVRQAPGKGLEWVATISSGGTYTYYPDSVKGRFTISRDNSKNTLYLQMNSLKAEDTAMYYCARHDFDYFPYWFAHWGQGTLVTVSS VL: EIVLTQSPATLSLSPGERATLSCRANSAVSYMYWYQQKPGQAPRPWIYLTSNRATGVPARFSGSGSGTDYTLTISSLEPEDFAVYYCQQWSSNPPTFGQGTKLEIK"
